Experiments:
[1] = molecular target: T1, D607A peptide (HER2 603-622 with D607A) (human); assay: SPR Biacore, mAb on chip, peptide analyte, 1:1 fit;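 note: where kon or koff could not be resolved by kinetic fitting, Kd comes instead from steady-state equilibrium analysis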
T1 peptide: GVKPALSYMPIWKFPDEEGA

[2] = molecular target: T2, Y610A peptide (HER2 603-622 with Y610A) (human); assay: SPR Biacore, mAb on chip, peptide analyte, 1:1 fit;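 note: where kon or koff could not be resolved by kinetic fitting, Kd comes instead from steady-state equilibrium analysis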
T2 peptide: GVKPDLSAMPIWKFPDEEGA

[3] = molecular target: T3, F616A peptide (HER2 603-622 with F616A) (human); assay: SPR Biacore, mAb on chip, peptide analyte, 1:1 fit;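 note: where kon or koff could not be resolved by kinetic fitting, Kd comes instead from steady-state equilibrium analysis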
T3 peptide: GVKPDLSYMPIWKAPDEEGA

[4] = molecular target: T4, A622G peptide (HER2 603-622 with A622G) (human); assay: SPR Biacore, mAb on chip, peptide analyte, 1:1 fit;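 note: where kon or koff could not be resolved by kinetic fitting, Kd comes instead from steady-state equilibrium analysis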
T4 peptide: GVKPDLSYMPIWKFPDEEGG

[5] = molecular target: T5, HER2-W614A expressed on CHO-K1 cells (human, UniProt P04626 23-1255); assay: flow cytometry on CHO-K1 cells expressing the point mutant
T5 construct: also called W614A point mutant; not shown: PA tag at the N terminus; RAP tag and MAP tag at the C terminus

[6] = molecular target: T6, HER2 peptide p603-622 (amino acids 603 to 622 of human HER2) (human); assay: SPR Biacore, mAb on chip, peptide analyte, 1:1 fit;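 note: all binding measurements run at 25 °C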
T6 construct: Synthetic peptide; also called wild-type HER2 peptide
T6 peptide: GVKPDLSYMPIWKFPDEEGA

HER2 peptide p613-618 = molecular target: T7, HER2 peptide p613-618 (human); assay: SPR Biacore, mAb on chip, peptide analyte, 1:1 fit;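 note: all binding measurements run at 25 °C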
T7 peptide: IWKFPD

HER2 peptide p613-619 = molecular target: T8, HER2 peptide p613-619 (human); assay: SPR Biacore, mAb on chip, peptide analyte, 1:1 fit;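 note: all binding measurements run at 25 °C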
T8 peptide: IWKFPDE

HER2 peptide p613-620 = molecular target: T9, HER2 peptide p613-620 (human); assay: SPR Biacore, mAb on chip, peptide analyte, 1:1 fit;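 note: all binding measurements run at 25 °C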
T9 peptide: IWKFPDEE

HER2 peptide p613-621 = molecular target: T10, HER2 peptide p613-621 (human); assay: SPR Biacore, mAb on chip, peptide analyte, 1:1 fit;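 note: all binding measurements run at 25 °C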
T10 peptide: IWKFPDEEG

HER2 peptide p612-619 = molecular target: T11, HER2 peptide p612-619 (human); assay: SPR Biacore, mAb on chip, peptide analyte, 1:1 fit;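 note: all binding measurements run at 25 °C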
T11 peptide: PIWKFPDE

HER2 peptide p612-620 = molecular target: T12, HER2 peptide p612-620 (human); assay: SPR Biacore, mAb on chip, peptide analyte, 1:1 fit
T12 peptide: PIWKFPDEE

HER2 peptide p612-622 = molecular target: T13, HER2 peptide p612-622 (human); assay: SPR Biacore, mAb on chip, peptide analyte, 1:1 fit
T13 peptide: PIWKFPDEEGA

HER2 peptide p611-618 = molecular target: T14, HER2 peptide p611-618 (human); assay: SPR Biacore, mAb on chip, peptide analyte, 1:1 fit
T14 peptide: MPIWKFPD

HER2 peptide p611-619 = molecular target: T15, HER2 peptide p611-619 (human); assay: SPR Biacore, mAb on chip, peptide analyte, 1:1 fit
T15 peptide: MPIWKFPDE

HER2 peptide p611-620 = molecular target: T16, HER2 peptide p611-620 (human); assay: SPR Biacore, mAb on chip, peptide analyte, 1:1 fit
T16 peptide: MPIWKFPDEE

HER2 peptide p611-621 = molecular target: T17, HER2 peptide p611-621 (human); assay: SPR Biacore, mAb on chip, peptide analyte, 1:1 fit
T17 peptide: MPIWKFPDEEG

HER2 peptide p610-618 = molecular target: T18, HER2 peptide p610-618 (human); assay: SPR Biacore, mAb on chip, peptide analyte, 1:1 fit
T18 peptide: YMPIWKFPD

HER2 peptide p610-619 = molecular target: T19, HER2 peptide p610-619 (human); assay: SPR Biacore, mAb on chip, peptide analyte, 1:1 fit
T19 peptide: YMPIWKFPDE

HER2 peptide p610-621 = molecular target: T20, HER2 peptide p610-621 (human); assay: SPR Biacore, mAb on chip, peptide analyte, 1:1 fit
T20 peptide: YMPIWKFPDEEG

HER2 peptide p609-619 = molecular target: T21, HER2 peptide p609-619 (human); assay: SPR Biacore, mAb on chip, peptide analyte, 1:1 fit
T21 peptide: SYMPIWKFPDE

HER2 peptide p609-620 = molecular target: T22, HER2 peptide p609-620 (human); assay: SPR Biacore, mAb on chip, peptide analyte, 1:1 fit
T22 peptide: SYMPIWKFPDEE

[7] = molecular target: T23, HER2-K615A expressed on CHO-K1 cells (human, UniProt P04626 23-1255); assay: flow cytometry on CHO-K1 cells expressing the point mutant
T23 construct: also called K615A point mutant; not shown: PA tag at the N terminus; RAP tag and MAP tag at the C terminus

[8] = molecular target: T24, HER2-F616A expressed on CHO-K1 cells (human, UniProt P04626 23-1255); assay: as above
T24 construct: also called F616A point mutant; not shown: PA tag at the N terminus; RAP tag and MAP tag at the C terminus

B1: H2Mab-250 antibody (antibody, V domains shown)
VH: EVQLVESGGGLVQPGGSLKLSCAASGFTFSNYGMSWVRQTPDRRLELVATINNNGGGTYYPDSVKGRFTISRDNAKNTLYLQMSSLKSEDTAMYYCTSPGLLWDAWGAGTTVTVSS
VL: not shown
notes: Mouse monoclonal from a hybridoma (immunogen HER2ec made in LN229 cells); also called antibody of the present invention
Kd [1]: 7.06 nM
koff [1]: 0.00052 s⁻¹
kon [1]: 73600 M⁻¹ s⁻¹
Kd [2]: 7.9 nM
koff [2]: 0.000451 s⁻¹
kon [2]: 57100 M⁻¹ s⁻¹
Kd [3]: 204 nM
koff [3]: 0.0108 s⁻¹
kon [3]: 52800 M⁻¹ s⁻¹
Kd [4]: 6.87 nM
koff [4]: 0.000453 s⁻¹
kon [4]: 65900 M⁻¹ s⁻¹
binding result [5]: no binding (tested: 10 g/mL (so in the source))

B2: H2Mab-214 antibody (antibody, V domains shown)
VH: QVTLKESGPGILQPSQTLSLTCSFSGFSLSTSGMGVSWIRQPSGKGLEWLAHIFWDDDKRYNPSLKSRLTISKDTSRNKVFLKITSVDTADTATYYCARRVVATDWYFDVWGAGTTVTVSS
VL: DIVLTQSPASLAVSLGQRATISCRASESVEYYGTTLMQWYQQKPGQPPKLLIYAASKVESGVPARFSGSGSGTDFSLNIHPVEEDDVAMYFCQQSRKVPLTFGAGTKLELKR
notes: as for B1
Kd [6]: 22.8 nM
koff [6]: 0.00534 s⁻¹
Kd (HER2 peptide p613-618): 915 nM
koff (HER2 peptide p613-618): 0.013 s⁻¹
kon (HER2 peptide p613-618): 14200 M⁻¹ s⁻¹
Kd (HER2 peptide p613-619): 1610 nM
koff (HER2 peptide p613-619): 0.0136 s⁻¹
kon (HER2 peptide p613-619): 8450 M⁻¹ s⁻¹
Kd (HER2 peptide p613-620): 2310 nM
koff (HER2 peptide p613-620): 0.01 s⁻¹
kon (HER2 peptide p613-620): 4340 M⁻¹ s⁻¹
Kd (HER2 peptide p613-621): 13000 nM
koff (HER2 peptide p613-621): 0.00955 s⁻¹
kon (HER2 peptide p613-621): 736 M⁻¹ s⁻¹
Kd (HER2 peptide p612-619): 22.2 nM
koff (HER2 peptide p612-619): 0.0235 s⁻¹
kon (HER2 peptide p612-619): 1.06e+06 M⁻¹ s⁻¹
Kd (HER2 peptide p612-620): 23.7 nM
koff (HER2 peptide p612-620): 0.0179 s⁻¹
kon (HER2 peptide p612-620): 754000 M⁻¹ s⁻¹
Kd (HER2 peptide p612-622): 39.7 nM
koff (HER2 peptide p612-622): 0.0244 s⁻¹
kon (HER2 peptide p612-622): 615000 M⁻¹ s⁻¹
Kd (HER2 peptide p611-618): 21 nM
koff (HER2 peptide p611-618): 0.0141 s⁻¹
kon (HER2 peptide p611-618): 669000 M⁻¹ s⁻¹
Kd (HER2 peptide p611-619): 11.1 nM
koff (HER2 peptide p611-619): 0.0083 s⁻¹
kon (HER2 peptide p611-619): 747000 M⁻¹ s⁻¹
Kd (HER2 peptide p611-620): 17.6 nM
koff (HER2 peptide p611-620): 0.00836 s⁻¹
kon (HER2 peptide p611-620): 475000 M⁻¹ s⁻¹
Kd (HER2 peptide p611-621): 16.8 nM
koff (HER2 peptide p611-621): 0.00961 s⁻¹
kon (HER2 peptide p611-621): 571000 M⁻¹ s⁻¹
Kd (HER2 peptide p610-618): 14.5 nM
koff (HER2 peptide p610-618): 0.0121 s⁻¹
kon (HER2 peptide p610-618): 837000 M⁻¹ s⁻¹
Kd (HER2 peptide p610-619): 5.74 nM
koff (HER2 peptide p610-619): 0.0051 s⁻¹
kon (HER2 peptide p610-619): 889000 M⁻¹ s⁻¹
Kd (HER2 peptide p610-621): 8.57 nM
koff (HER2 peptide p610-621): 0.00519 s⁻¹
kon (HER2 peptide p610-621): 679000 M⁻¹ s⁻¹
Kd (HER2 peptide p609-619): 5.76 nM
koff (HER2 peptide p609-619): 0.00449 s⁻¹
kon (HER2 peptide p609-619): 779000 M⁻¹ s⁻¹
Kd (HER2 peptide p609-620): 6.89 nM
koff (HER2 peptide p609-620): 0.00445 s⁻¹
kon (HER2 peptide p609-620): 645000 M⁻¹ s⁻¹
binding result [7]: no binding (tested: 10 g/mL (so in the source))
binding result [8]: no binding (tested: 10 g/mL (so in the source))

Source: patent US20240002531A1 (ONO PHARMACEUTICAL, published 2024)
